Source: the DeepSol protein solubility set

Assay: soluble on expression in E. coli; label from the status in PepcDB or PDB records

| Sequence | soluble on expression in E. coli |
| --- | --- |
| MSLKKQPGFTQDYLLSKATTLPDKTRLERAVEPLCARHPGECGILALDNSLDAFAARYRLTEMAARTLDVQYYIWEDDMSGRLLFSVLLSAAKRGVHVRLLLDDNNTPGLDDTLRLLDSHPNIEVRLFNPFSFRTLRALGYLTDFARLNRRMHNKSYTADGVVTLVGGRNIGDAYFGAGEEPLFSDLDVMAIGPVVNDVANDFERYWRCSSVSTLQQVLSLSEQELTQRIELPESWYNDEITRRYLHKLETSQFMADLDCGTLPLIWAKTRLLSDDPSKGEGKAQRHSLLPQRLFDVMGSPTERIDIISAYFVPTRAGVAQLLNLVRKGVKIAILTNSLAANDVAVVHAGYARWRKKLLRYGVELYELKPTREHETAVHDRGLTGNSGSSLHAKTFSIDGSKVFIGSLNFDPRSTLLNTEMGFVIESETLATLIHKRFTQSQRDAAWQLRLDRWGRINWIDRQQEEEKVLKKEPATRFWQRVLVRLAAILPVEWLLEGHHHHHH | soluble |
| MLCAKNKKDPKPPPASFSETSKVQNVQNTQPKPAAPSQMSIDESHSKNQKLPSAEKSVEECKKPVSPEKKKSPIKVLSEKKLKSKKKEEDKEPDEKVEKDVKKEVKADNNEPLVKNLKIAKKEQEEENPKTDLESHKDEAEAKKKESRRQKKMRNKNSKEGSVEKMEKSEKAY | not soluble |
| MAHHHHHHMPGASDRGTAYVSCRIHCLPACFSRAVVAVCKLTSPAPGIPPLVSLCRYGLPGYSAQEGEAFSAAASGLHPRHQLPFVLSRVAASKAIASLSPDKRAACPGEEDGPAVVFTDRREAAPTLHGCCLSIAHEDSAAASVAWSVPSPDSSSFKDYHAAPERLYMEAQLVCSHSTLPDATATSFAYAIDVVNVAEVHRVRSRFPHFGQRWMPQCTTTASADDVGRALTCVQKQHQECVAAVGAPGGSHGGEGVSACQAACRRDEWWKHLVTPYVTEADAYAAVVLAQHWGVRECAVKLVGIPGRSFAYECVRALPPRGGAVVTESTPFTASFLMSHTLYSAEVHGAEAATLAQQRLHPLLYLYTWTEWVPLNSTVDLPYVVVLACAPCRSDAR | not soluble |
| MDISTNKANYKPAVSQAFDGQETQDGTNILILGSDQRVTQGSTDARTDTIMVVNVGNHAKKIKMVSFMRDTLINIPGYSYNDNSYDLKLNSAFNLGEQEDHHGAEYVRRALKHNFDIDIKYYVMVDFETFAEAIDTLFPNGVKIDAKFATVGGVAVDSVEVPDDLRMKNGVVPNQTIEVGEQRMDGRTLLNYARFRKDDEGDFGRTVRQQQVMSAVMSQIKDPTKLFTGSAAIGKIYALTSTNVSFPFVVKNGVSVLGSGKNGVEHVTIPENGDWVDEYDMYGGQALYIDFDKYQKTLAKLGLRLEHHHHHH | soluble |
| MANSFTFWNDCVEPEDLEEMWMDPAVSAEWIDVGETKGQKVHLSRDPDGQPYLTQTEMRAVSDITVRRHFDSILDSEMICAIAELESDRKPLIMRYSKKTKETGLGILQVFEKTAAWLAGGQGYQAYNVDDNPDLLHKPFINVYFGAAYLKWLTDYQNNQRSEEFVVRAYNGGTKKATHKSTLPYWKRYLAVKESLPSRKHGDAGPSSFRPTNPASPGSNTDFTYWDSRASPEDMEDMWNQSEICKEWTKSKEERGKVRFSQDGEKRPYLSRGELKAVAEIIVSKYFSTKGIRVPLVCAIADTVCMRFVNGIKKHVGILGVDYSTASWLYSELGYRAYRVDSADDLTKPFISMYFGVAYLVWLSEYEGSQRSNQFIVQAYMKGPDHVDLEESCPLWLKFEQALSYYEESKRDSGSCVIL | not soluble |
| MSLTTSIPAPPAESIDQVLNLISKGSNGAAQQSKHPLRIVMGSVMISEIGALISGVLKSLNNNFTTQKVWEEDYLVRVMAHLGLFAHAVGSQVSANDLTQLLTLYVQRLSARGFTDLVPLYLSFIPDDSDAREYYSKFLSSITDPSERTKQLQLVRKLGIDSNGDEERMANVLRRTVERVMADTEAEYRPSGEVTVQDEDTDVTETDTKICQSVDWYFENNMYPDAVSASLTVIRRFLACGRLAALRHFVRGKDLKQLVKNYDVDLYTRSLAGLDDGAQVGDADKDEIIQYHLFVQGLELIQDWRKFLKDNQTNSLSAVFWKSKHLESLIEKVSSGIVGLIRDWFQELIATDGTKKEMYQQLRVLYVPYLVMELLDIYQQARMSNWLYVKKAFELVSLVADEDNNDLLTCFVNCGRLDELMVRSGNLAAVACERGIANIFSEGHHHHHH | soluble |
| MILAIDLGTSGAKAAIIDSAGAVHEQTFVPYSTTKLPNGGVEQDPMQWVSAARQAVTRLPRSYSVVSFTGQMQDLICLDRAGRPLGQALLYNDARAAAEAARLNTVVPEWKDITGNRQTATSTAAMWLRLMEQSD | not soluble |
| MRCPFCGAEDTSVVDSRISEEGARIRRRRRCVECEKRFTTYETVELRFPQVIKQDGNRVEFNREKLYTSFARALHKRPVPTGQVDAAIERILQKLLGSGVQEISSRTIGEWVMQELYSLDKVAYIRFASVYRSFEDVGDFQEVIREVQSSPQNGDGPSS | not soluble |
| MGSDKIHHHHHHMYNNINYKVLWGHSEYDGSFEIMEFRQLSYFISVAKYLSFTKAAEEHHIAQTAISQQISTLEKQLNVKLFVRNNRAVELTDAGRVLLKEADLITSRVVEAERKTKQAALGFEGSLNVGILGSSEKNFLPVILKRFHKLYPKIGINLSRNSYKKLADDMKGGHLDITFIFPYELNDISHVKYRKLFDYEICLVVNKEHRLARYKKIDVKEIKNEKFIVVGKEEAPSTVKQMRKNCMGDGFKLNVVAECKNLDTMLIMVEAGMGVALVPTCVANDSNNNISYIELENSKQIVEIGVAWMEGNMNPTLKLFLGVLSDLYWDN | not soluble |
| TTFFGRETAFFNGTEKLGRKFSLPVVYMDVEKTGHDVFTGTIKLLHHPQDDSPEGSITEEYVRLMETTIRRDPSQWLWSHRRWKRPRLHNTRQL | not soluble |
| MDLVKDVKRELSFSELKGKRVSIDGYNALYQFLAAIRQPDGTPLMDSQGRVTSHLSGLFYRTINILEEGVIPIYVFDGKPPEQKSEELERRRKAKEEAERKLERAKSEGKIEELRKYSQAILRLSNIMVEESKKLLRAMGIPIVQAPSEGEAEAAYLNKLGLSWAAASQDYDAILFGAKRLVRNLTITGKRKLPNKDVYVEIKPELIETEILLKKLGITREQLIDIGILIGTDYNPDGIRGIGPERALKIIKKYGKIEKAMEYGEISKKDINFNIDEIRGLFLNPQVVKPEEALDLNEPNGEDIINILVYEHNFSEERVKNGIERLTKAIKEAKGASRQTGLDRWF | soluble |
| GASIVGSWVEPVPGLEGQVQGIKMEEGGVASSVNMATLVYESWKQEGTKLILTGKSIGNGQTIEFVDTMDIKRLTADSLVLDNQGMEIRYAKQK | soluble |
| MGSDKIHHHHHHAVVSCDSILGEEEVDCSVEYRVKFKYDYNMKYADAFSREVGTVTLYAFDDNGKLVYQKTEEGDVLGEEGYTMKVDLEPGDYHLVTWAGLNDEASFSVPLVTAGESSLDELQCRMDRLYSRAADGTAVVNSKLSALWHGEVTKQSFSRAASSQVVTVPLVKNTNTIRIILQQMDGVTVEVDKFEFTITDDNGLMNYDNKLLEDETLTYYPYYRMQGGTDMGIRADGDAEDSNISVAIAQITVGRLVVENNPRLTITNKETGEPVLSIPLVKYLLLTEAEGHEMTNQEYLDRQDEYNMTFFLDESMKWINTSIIINDWVVRFNELDM | not soluble |
| SLIENVDAQADSSWPHRGQIEVRNLTVKYTEAGHAVLKNLSFSAEGRQRVGILGRTGSGKSSLFNALLKLVYTDGEISIDGVNWNKMPLEKWRKAFGVVPQKVFIFTGPLRMNLDPYGCHSDEELWRVAEEVGLKTVIEQFPDKLDFQLEYGGYVLSNGHKQLICLARSILSGARILLLDEPSAHLDPVTIKVLKKTLRQSFSTCTILLSEHKVEPLLECDSFLMMDKGQVKTYDSIQKLLNETSDLKQAISPAE | not soluble |
| MNERFGELNFVTPDACSLRRMANKYYPYTMRQSFPLWTSISKEVQIVEGRELPVMQDLADRHPEINKMYGSAEELWENLKTFIDFQGNLQYFEVNPCVSYNHRFFIHKDISSDKKFLYKNDIFLSIQDNLIVRKPVLRNRVSLFMLAYFLKYHEKKLSTSCEFVEYVEKDFDNLINELNDFLLDFIKKPKPVANDANFDWKKVFTRLRNMLPEPMTEEEMSPLADVLKRYFETYPRAQAVGVLNMIEQFCKMMIPRLQKIMDKRPEWFLPNRTKNAKPVLRYFIDGKKPFVMVPEYEIATKEKFQYTDSSFMATGIDTIDLSDISLVASSNGGSLSDFYCIRFNIERTKHTARPIRTTTGTFCKLSADVLLEHLRDLFFGSRVFQSPTRSMFNGYVISMNEIFNSNAQGIYFLEESIIEFVEKISSGLFGTPESKTIRDVPPKGFTVGDVHSELKYLGLLEFFPNISNYAEIAYKKVVAEKKMKILRTCDMFDAVEICMMLAVFNGYPKLAQFLHSQHACHRIQGLQCKKCELEKKHPMMNSWLYPYMEVEEDEKVDSTSSDDEEKRTSTSELAGNGRKSEQKKLAVKDPEPSTMEKETRKSKCCESTKDQLKAFQEQVEALKKEMKELETAMSKNLKN | not soluble |
| MAHHHHHHMSCITSPPQPSSPPRMDAHTCVCIGITMPPAARQRKGARRSLTLPLLSLPWRKIRDQEGGAVCAGPVQQLPWKVRAEAALQSRPSPPAIRRRYLALSLPMRTSAAAAVAAAAHAGVRALHTATGVAGNSCGASPRATVALPPHSGLTLPSFTRCGASSAAFITRAHSVGCCGCAAAVKQHRLYSSHGCSSNSSGSFADSSRPYVPGQAVQETYPIIQLPARSLWCRQYALDARRVAQGEYAGLISQVREARHYYQYPSMSAPQTGWNVQMFTLFDNSVFINPVNLDEEVWRAEAARQGMSWVAFEEEKMRELRAEGLTGFAWEPCASSGFLLHYIERPLTVRMRALDEHGKPFTVTLDKMRARMALHELDHLQGVLFTRRVVDTDHVVPMEGFVTMSDWSDDYPSLEARSTFLYTIFTPPYHFVSDAVPDGNLLDRKFEDGIYPGCEQDRQQRIELTAMEEIQRNVWRKEKAKRKEGGQQCGRGDVTAVEDDDGSGAAGAR | not soluble |
| DSDWEDIHYAYFSAICQARKNVYIETPYFIPDESLLKAIKSAALSGVDVRIIFPKIADHKIVNIASYSYFEEILRAGGKVYLYNKGFIHSKVVIIDDKIASAGTANMDLRSFMLNFEVNAFIYDEEVIRVMTDDFFEDLSYCEELNLEVFKNR | not soluble |
| MGSDKIHHHHHHMSEDLLNSFQEAYSNLELFPLMERNEMERFRVEYGDDLIADLNQLVEDSPNGDGKIVFTGHRGCGKSTLLAEFSRQIQDKYFVVLFSIADKIEMSAVNHINILFAIAVNLMTEAEARKVDIPQSTKEALYKWFATRTRTEESNLQAEVSIGFDLLKLISSKLKADASVRDEIKQEFERKLSDLVARINEIAALIQAATKQNVLVIIDDLDKLDLGRVNEIYRDNIKALCQPNFQIIYTIPIAVLRETFISTIIATETNDQVVAMPVLKIFDKGKNRFPNAQPRREATKILGEVLQKRIPNELIAAETAEKIVIYSGGVLRELIRISKECCRICLRTIRRNPSAEVIIDDKILLQAINKIRNDFSIRLGKTDIDILQSVYEQFMPNDPKQAEFLDLLHGLYVLEYRTDETWYDVHPIIIESLKRQGAINVK | not soluble |
| MADIAILVAEEYERRMKHTTVGSRSSPVEFDWWKIIPAKMTIAFDKMKIESLKKNFEAKSEFALAISHGFFSA | not soluble |
| MSADEFILQQKVHALYSNHRSWLQRWLYRKLGNACDAADLVQDTFISVITGGYADDIREPKPFLATIAGRLVAHRWRRNQLETAYLEALAALPVELMPSPEAHVLALEALLEIDRALDGLPTRVKEAFLLAHLEELSYAQIAERLNVSTSSVKQYLTRANRQCLFALSV | not soluble |
